From patent US20210388087A1 (Chugai, published 2021) come the findings set out here.

B1: H183/L072 VL K50S (antibody, name in Kabat numbering, V domains shown)
VH: QVQLVESGGGLVQPGRSLRLSCAASGFTFSNAWMHWVRQAPGKGLEWVAQIKDKGNAYAAYYAPSVKGRFTISRDDSKNSIYLQMNSLKTEDTAVYYCHYVHYASASTVLPAFGVDAWGQGTTVTVSS
VL: DIVMTQSPLSLPVTPGEPASISCQASQELVHMNRNTYLHWYQQKPGQAPRLLIYSVSNRFPGVPDRFSGSGSGTDFTLKISRVEAEDVGVYYCAQGTSVPFTFGQGTKLEIK
notes: Dual-Ig
B2: H183/L072 VL K50T (antibody, name in Kabat numbering, V domains shown)
VH: B1 VH
VL: B1 VL with S55T
notes: Dual-Ig
B3: H183/L072 VL L33V (antibody, name in Kabat numbering, V domains shown)
VH: B1 VH
VL: B1 VL with L38V, S55K
notes: Dual-Ig
B4: H183/L072 VL L33N (antibody, name in Kabat numbering, V domains shown)
VH: B1 VH
VL: B1 VL with L38N, S55K
notes: Dual-Ig
B5: H183/L072 VL M27eP (antibody, name in Kabat numbering, V domains shown)
VH: B1 VH
VL: B1 VL with M32P, S55K
notes: Dual-Ig
B6: H183/L072 VL L33F (antibody, name in Kabat numbering, V domains shown)
VH: B1 VH
VL: B1 VL with L38F, S55K
notes: Dual-Ig
B7: H183/L072 VL L27bQ (antibody, name in Kabat numbering, V domains shown)
VH: B1 VH
VL: B1 VL with L29Q, S55K
notes: Dual-Ig
B8: H183/L072 VL L33W (antibody, name in Kabat numbering, V domains shown)
VH: B1 VH
VL: B1 VL with L38W, S55K
notes: Dual-Ig
B9: H183/L072 VL L27bT (antibody, name in Kabat numbering, V domains shown)
VH: B1 VH
VL: B1 VL with L29T, S55K
notes: Dual-Ig
B10: H183/L072 VL L33Q (antibody, name in Kabat numbering, V domains shown)
VH: B1 VH
VL: B1 VL with L38Q, S55K
notes: Dual-Ig
B11: H183/L072 VL M27eK (antibody, name in Kabat numbering, V domains shown)
VH: B1 VH
VL: B1 VL with M32K, S55K
notes: Dual-Ig
B12: H183/L072 VL L27bK (antibody, name in Kabat numbering, V domains shown)
VH: B1 VH
VL: B1 VL with L29K, S55K
notes: Dual-Ig
B13: H183/L072 VL L27bG (antibody, name in Kabat numbering, V domains shown)
VH: B1 VH
VL: B1 VL with L29G, S55K
notes: Dual-Ig
B14: H183/L072 VL L27bE (antibody, name in Kabat numbering, V domains shown)
VH: B1 VH
VL: B1 VL with L29E, S55K
notes: Dual-Ig
B15: H183/L072 VL L27bM (antibody, name in Kabat numbering, V domains shown)
VH: B1 VH
VL: B1 VL with L29M, S55K
notes: Dual-Ig
B16: H183/L072 VL L27bI (antibody, name in Kabat numbering, V domains shown)
VH: B1 VH
VL: B1 VL with L29I, S55K
notes: Dual-Ig
B17: H183/L072 VL K50V (antibody, name in Kabat numbering, V domains shown)
VH: B1 VH
VL: B1 VL with S55V
notes: Dual-Ig
B18: H183/L072 VL L27bA (antibody, name in Kabat numbering, V domains shown)
VH: B1 VH
VL: B1 VL with L29A, S55K
notes: Dual-Ig
B19: H183/L072 VL M27eF (antibody, name in Kabat numbering, V domains shown)
VH: B1 VH
VL: B1 VL with M32F, S55K
notes: Dual-Ig
B20: H183/L072 VL L33A (antibody, name in Kabat numbering, V domains shown)
VH: B1 VH
VL: B1 VL with L38A, S55K
notes: Dual-Ig
B21: H183/L072 VL M27eG (antibody, name in Kabat numbering, V domains shown)
VH: B1 VH
VL: B1 VL with M32G, S55K
notes: Dual-Ig
B22: H183/L072 VL M27eL (antibody, name in Kabat numbering, V domains shown)
VH: B1 VH
VL: B1 VL with M32L, S55K
notes: Dual-Ig
B23: H183/L072 VL L33G (antibody, name in Kabat numbering, V domains shown)
VH: B1 VH
VL: B1 VL with L38G, S55K
notes: Dual-Ig
B24: H183/L072 VL L33H (antibody, name in Kabat numbering, V domains shown)
VH: B1 VH
VL: B1 VL with L38H, S55K
notes: Dual-Ig
B25: H183/L072 VL K50W (antibody, name in Kabat numbering, V domains shown)
VH: B1 VH
VL: B1 VL with S55W
notes: Dual-Ig
B26: H183/L072 VL L27bP (antibody, name in Kabat numbering, V domains shown)
VH: B1 VH
VL: B1 VL with L29P, S55K
notes: Dual-Ig
B27: H183/L072 VL L27bH (antibody, name in Kabat numbering, V domains shown)
VH: B1 VH
VL: B1 VL with L29H, S55K
notes: Dual-Ig
B28: H183/L072 VL M27eE (antibody, name in Kabat numbering, V domains shown)
VH: B1 VH
VL: B1 VL with M32E, S55K
notes: Dual-Ig
B29: H183/L072 VL L33E (antibody, name in Kabat numbering, V domains shown)
VH: B1 VH
VL: B1 VL with L38E, S55K
notes: Dual-Ig
B30: H183/L072 VL L27bV (antibody, name in Kabat numbering, V domains shown)
VH: B1 VH
VL: B1 VL with L29V, S55K
notes: Dual-Ig
B31: H183/L072 VL M27eH (antibody, name in Kabat numbering, V domains shown)
VH: B1 VH
VL: B1 VL with M32H, S55K
notes: Dual-Ig
B32: H183/L072 VL M27eA (antibody, name in Kabat numbering, V domains shown)
VH: B1 VH
VL: B1 VL with M32A, S55K
notes: Dual-Ig
B33: H183/L072 VL L33M (antibody, name in Kabat numbering, V domains shown)
VH: B1 VH
VL: B1 VL with L38M, S55K
notes: Dual-Ig
B34: H183/L072 VL M27eN (antibody, name in Kabat numbering, V domains shown)
VH: B1 VH
VL: B1 VL with M32N, S55K
notes: Dual-Ig
B35: H183/L072 VL L33P (antibody, name in Kabat numbering, V domains shown)
VH: B1 VH
VL: B1 VL with L38P, S55K
notes: Dual-Ig
B36: H183/L072 VL L33T (antibody, name in Kabat numbering, V domains shown)
VH: B1 VH
VL: B1 VL with L38T, S55K
notes: Dual-Ig
B37: H183/L072 VL L27bS (antibody, name in Kabat numbering, V domains shown)
VH: B1 VH
VL: B1 VL with L29S, S55K
notes: Dual-Ig
B38: H183/L072 VL M27eI (antibody, name in Kabat numbering, V domains shown)
VH: B1 VH
VL: B1 VL with M32I, S55K
notes: Dual-Ig
B39: H183/L072 VL L33I (antibody, name in Kabat numbering, V domains shown)
VH: B1 VH
VL: B1 VL with L38I, S55K
notes: Dual-Ig
B40: H183/L072 VL L33Y (antibody, name in Kabat numbering, V domains shown)
VH: B1 VH
VL: B1 VL with L38Y, S55K
notes: Dual-Ig
B41: H183/L072 VL L27bD (antibody, name in Kabat numbering, V domains shown)
VH: B1 VH
VL: B1 VL with L29D, S55K
notes: Dual-Ig
B42: H183/L072 VL L27bF (antibody, name in Kabat numbering, V domains shown)
VH: B1 VH
VL: B1 VL with L29F, S55K
notes: Dual-Ig
B43: H183/L072 VL M27eD (antibody, name in Kabat numbering, V domains shown)
VH: B1 VH
VL: B1 VL with M32D, S55K
notes: Dual-Ig
B44: H183/L072 VL L27bW (antibody, name in Kabat numbering, V domains shown)
VH: B1 VH
VL: B1 VL with L29W, S55K
notes: Dual-Ig

Changes are numbered by the printed parent chain.

T1 sequence (chain, as listed by the source limits assumed): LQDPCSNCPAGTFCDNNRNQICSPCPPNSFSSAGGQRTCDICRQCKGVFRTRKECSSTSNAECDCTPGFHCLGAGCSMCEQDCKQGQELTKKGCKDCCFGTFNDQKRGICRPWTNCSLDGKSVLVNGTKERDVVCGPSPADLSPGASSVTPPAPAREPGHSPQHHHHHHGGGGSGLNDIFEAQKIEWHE

This assay addresses T1, Human CD137 ECD (human).
T1 construct: entry includes C-terminal His-tag and biotin acceptor peptide; also called human CD137 extracellular domain; 4-1BB
Briefly: Biacore SPR, vs parent H183/L072.
On to B1, for which the “fold change of affinity” value turned out to be 0 fold.
Regarding B2, the “fold change of affinity” value was 0.2 fold.
In the case of B3 it was 0.6 fold; in that of B4, 0.1 fold.
As to B5, the “fold change of affinity” value is 1 fold.
In the case of B6 it was 0.3 fold; in that of B7, 0.2 fold.
In the case of B8 it was 0.1 fold.
For B9, the “fold change of affinity” value is 0.4 fold.
On to B10, for which the “fold change of affinity” value was determined as 1.4 fold.
In the case of B11, the “fold change of affinity” value was 1.1 fold.
In the case of B12 it was 0.3 fold.
The result for B13 reads 0.1 fold; that for B14, 0.2 fold.
For the molecule B15, the “fold change of affinity” value was 0.4 fold.
The result for B16 reads 1.1 fold; that for B17, 0.3 fold; that for B18, 0.4 fold.
As for B19, the “fold change of affinity” value was determined as 0.7 fold.
The result for B20 reads 0.9 fold.
Regarding B21, the “fold change of affinity” value was determined as 0.7 fold.
On to B22, for which the “fold change of affinity” value is 0.8 fold.
Regarding B23, the “fold change of affinity” value was 0.1 fold.
As for B24, the “fold change of affinity” value is 0.9 fold.
As for B25, the “fold change of affinity” value came out at 0 fold.
Regarding B26, the “fold change of affinity” value is 0.8 fold.
On to B27, for which the “fold change of affinity” value stood at 0.3 fold.
For the molecule B28, the “fold change of affinity” value was determined as 0.9 fold.
For B29, the “fold change of affinity” value was 0.1 fold.
The result for B30 reads 1.1 fold; that for B31, 0.8 fold; that for B32, 1 fold.
Consider B33, for which the “fold change of affinity” value stood at 0.9 fold.
In the case of B34 it was 0.8 fold.
B35: the “fold change of affinity” value came to 0.2 fold.
For the molecule B36, the “fold change of affinity” value came out at 0.2 fold.
Consider B37, for which the “fold change of affinity” value was 0.3 fold.
As for B38, the “fold change of affinity” value was found to be 0.9 fold.
For the molecule B39, the “fold change of affinity” value was 0.1 fold.
As to B40, the “fold change of affinity” value was 0.1 fold.
In the case of B41, the “fold change of affinity” value turned out to be 0.2 fold.
Take B42: the “fold change of affinity” value came to 0.3 fold.
Take B43: the “fold change of affinity” value came to 0.7 fold.
B44: the “fold change of affinity” value worked out at 0.3 fold.
